Assay [1] deals with T1, recombinant human DLL3 protein (human, UniProt Q9NYJ7 27-492, limits assumed).
T1 construct: also called rhu DLL3; human biotinylated DLL3
T1 sequence (looked up): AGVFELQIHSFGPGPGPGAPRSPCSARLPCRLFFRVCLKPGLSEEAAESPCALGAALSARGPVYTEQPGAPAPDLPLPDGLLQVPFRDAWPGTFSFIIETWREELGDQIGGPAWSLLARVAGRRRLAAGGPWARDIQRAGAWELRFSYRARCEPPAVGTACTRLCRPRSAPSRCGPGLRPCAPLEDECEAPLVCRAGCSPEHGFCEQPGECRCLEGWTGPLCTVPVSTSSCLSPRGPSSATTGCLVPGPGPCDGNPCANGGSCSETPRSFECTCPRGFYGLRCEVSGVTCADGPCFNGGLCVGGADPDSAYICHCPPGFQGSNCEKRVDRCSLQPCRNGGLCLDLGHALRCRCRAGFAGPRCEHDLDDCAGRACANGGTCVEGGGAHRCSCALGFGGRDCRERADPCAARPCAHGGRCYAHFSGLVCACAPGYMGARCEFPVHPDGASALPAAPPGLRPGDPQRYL
The assay can be described thus: SPR, control: individual binding construct. The method, then:
Surface Plasmon Resonance (SPR) was used to assess the binding kinetics and binding affinity. Kinetic rate coefficients were recovered from binding analysis experiments performed with a Biacore 3000 biosensor. Concentrations of the anti-DLL3/anti-CD3/anti-HSA trispecific binding construct ranging from 1.23 nM to 300 nM were run against the SPR sensorgram surfaces immobilized with recombinant human CD3 (rhu CD3) or recombinant HSA (rHSA). Concentrations of recombinant human DLL3 (rhu DLL3) ranging from 1.23 nM to 100 nM were run against the SPR sensorgram surface immobilized with the anti-DLL3/anti-CD3/anti-HSA trispecific binding construct. The association and dissociation phase data were globally fit to a 1:1 model to determine the association rate coefficient (kₒₙ), dissociation rate coefficient (koff), the Rmax value, and the dissociation constant (KD). Results were reported as the global fits to 1:1 model±standard error. The control groups were the three corresponding individual binding constructs. All three antigen binding domains in the trispecific binding construct retain binding to the corresponding antigen.
For orientation: Surface plasmon resonance follows binding to a sensor surface in real time, without labels.

Assay [2] addresses T2, DLL3 target antigen coated on Octet SA tips (binning experiment) (Homo sapiens (Human), UniProt Q9NYJ7 27-492, Probably biotinylated for capture on streptavidin (SA) tips. The site is not stated.).
T2 sequence: T1 sequence (looked up)
The assay can be described thus: Octet binning on DLL3-coated SA tips; competitor: 3HCE56. How it is done: (§1) Antibody binning experiments were carried out for 5 anti-DLL3 VHHs and an anti-human DLL3 BiTE (SEQ ID NO: 756). The target antigen was coated on a series of Octet SA tips. Each series of tips was first soaked in a periplasmic extract containing one specific VHH. After the response signals reached saturation, the tips were transferred to a mix of PEs containing again the first VHH (at the same concentration) plus a different VHH (termed secondary VHH) for each tip of the series. Secondary VHH that still bind the target antigen in the presence of the first VHH will show an increased response, as compared to the binding response of the first VHH alone. This was repeated for each VHH as primary VHH until all VHH were tested against each other in both directions (as primary and as secondary binder). From the response data, the bins were deduced for each VHH. 2HCE117 and 3HCE4 show competition with the human DLL3 BiTEs, whereas 3HCE56 and 3HCE87 show a partial competition.

Assay [3] addresses T2, DLL3 target antigen coated on Octet SA …. Nature of the assay: Octet binning on DLL3-coated SA tips; competitor: DLL3 BiTEs. How it is done: as §1
The target is the same in assay [4]. The assay can be described thus: Octet binning on DLL3-coated SA tips; competitor: 3HCE4. The method, then: as §1
For assay [5] the target is unchanged. Nature of the assay: Octet binning on DLL3-coated SA tips; competitor: 2HCE117. The method, then: as §1
(In general: In BLI a coated tip is dipped into the sample, and binding shifts an interference pattern.)

Assay [6] addresses T1, recombinant human DLL3 protein. Nature of the assay: Fortebio Octet Red, DLL3 immobilised on tips, dilution series of the VHH, 1:1 binding model; kon error 1.20E+02; Full R2 0.9994. How it is done: Additional experiments were carried out to further characterize the binding properties of the anti-DLL3 constructs. Binding properties tested include dissociation constant (KD), off-rate (koff), binding to DLL3 protein by ELISA and binding to CHO cells expressing human, cyno or mouse DLL3. To obtain off-rate (koff), human biotinylated DLL3 was immobilized on Octet SA tips, and cynomolgus or mouse DLL3 was immobilized on Octet AR2G tips. For each DLL3 protein, the binding to a dilution series of each anti-DLL3 construct was measured using Fortebio Octet Red. The dissociation constant (KD), off-rate (koff) and other kinetic parameters for each anti-DLL3 construct were calculated using a 1:1 binding model. In addition, binding of these anti-DLL3 constructs to CHO cells expressing human, cyno or mouse DLL3 protein was analyzed using flow cytometry (FACS).

Experimental findings from patent US20230227577A1 (MYTHIC THERAPEUTICS, published 2023) are described below.

B1: 2HCE27 anti-DLL3 VHH (VHH)
VHH: QVQLQESGGGLVQAGGSLRLSCAASGRTFRSYAMGWFRQAPGKEREFIAVIIMSDGSTSYADSVKGRFTISRDNAKNTLYLQMNSLKPEDTAVYYCAARRDYFTGVYDYWGQGTQVTVSS
notes: In the binning assay it was used as a periplasmic extract; also called anti-DLL3 (2HCE27)
In general, Kd refers to the concentration at which binding is half-saturated. As usually defined, the koff is the first-order rate constant of dissociation. As usually defined, the kon is the second-order rate constant of association. For the molecule B1, the Kd in assay [1] is 7.89 nM. Besides, in assay [1], the koff was 0.00064 s⁻¹. For the same molecule, the kon amounted to 80000 M⁻¹ s⁻¹ in assay [1] and 80900 M⁻¹ s⁻¹ in assay [6]. Moreover, the “binning response (unit not given)” value in assay [2] was 6500; in assay [3], 83.4; in assay [4] it was 53.4; in assay [5], 19900.
